From paper PMC4737144

Tests used:
[1] = tested on: Hfq (Escherichia coli); test: EMSA
[2] = tested on: Strep-RapZ (Escherichia coli); test: EMSA

GlmY
binding signal (fold higher Hfq needed than for GlmZ) [1]: 10 | Kd [2]: 30 nM
